Source: US6372892

Target: recombinant human IL-1β (human) (UniProt P01584)
Assay: cell-based or functional assay

UniProt P01584, sequence (P01584 117-269 limits assumed): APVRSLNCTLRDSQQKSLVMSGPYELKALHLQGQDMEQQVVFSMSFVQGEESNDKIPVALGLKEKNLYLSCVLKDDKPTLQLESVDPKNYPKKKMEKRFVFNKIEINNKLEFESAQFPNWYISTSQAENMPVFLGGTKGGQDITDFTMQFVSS

IL-1 Hy2 (from UniProt Q8WWZ1 1-152) (ligand)
IL-1β induced PGE2 production in human fibroblasts (CCD 1098), PGE2 ELISA; IL-1 Hy2 at 1000 fold excess: 40 to 60 % inhibition
